Reference: publication PMC12615485, “New dengue virus inhibitors targeting NS3-NS5 interaction identified by in silico screening” (Frontiers in Microbiology, 2025)

Biological target: 6His-NS5 RdRp(270-900) of DENV-2 NGC strain (DENV-2 NGC strain)
Assay: ELISA
Conditions: both partners purified

EGEWKEGEEVQVLAL [NS3(86-100) peptide of DENV-2]
IC50: > 200 µM
